Assay [1] addresses ΔE22-Aβ_(1-39) (Japanese mutant Aβ). The assay is described as follows: fluorescence polarisation.
Assay [2] has the same target. The assay is described as follows: critical concentration.

For “ΔE22-Aβ_(1-39) (Japanese mutant Aβ) (peptide)”, in assay [1], the k (first-order rate constant of the increase in anisotropy on aggregation) is 0.08 s⁻¹. Further, the critical concentration (Cr) in assay [2] worked out at 0.167 µM.

The record behind these values is PMC3631511.
